Among the data in patent US20240034801A1 (published 2024) are EC50 values, retold here.

Test [1] concerns the target T1, human PD-L1-Fc (ACROBiosystems, catalog number PD1-H5258) (human, UniProt Q9NZQ7 19-238). Kind of test: competition ELISA; blocking PD-L1/PD-1. For orientation: ELISA stands for enzyme-linked immunosorbent assay.
For test [2], the target named is recombinant human PD-L1 (Sino Biological Inc., catalog number 100 84-H08H) (human, UniProt Q9NZQ7 19-239). Kind of test: ELISA; Fig. 8A.
Chain of recombinant human PD-L1 (Sino Biological Inc., catalog number 100 84-H08H) (Q9NZQ7 19-239): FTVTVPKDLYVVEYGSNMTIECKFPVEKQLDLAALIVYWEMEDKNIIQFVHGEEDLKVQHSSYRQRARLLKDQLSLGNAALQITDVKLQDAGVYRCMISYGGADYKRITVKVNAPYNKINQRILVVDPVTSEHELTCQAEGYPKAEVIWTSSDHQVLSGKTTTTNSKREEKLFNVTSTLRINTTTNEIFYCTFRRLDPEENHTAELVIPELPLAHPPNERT
In test [3] the target is T1, human PD-L1-Fc (ACROBiosystems, catalog …). Briefly: competition ELISA; blocking PD-L1/CD80.
The target of test [4] is 4-1BB on GS-H2/4-1BB cells (purchased from GenScript) (UniProt Q07011 24-255). Kind of test: FACS binding; Fig. 8C, GS-H2/4-1BB cells. (In general: Flow cytometry measures light scatter and fluorescence of single cells or particles in a stream.)
Chain of 4-1BB on GS-H2/4-1BB cells (purchased from GenScript) (Q07011 24-255): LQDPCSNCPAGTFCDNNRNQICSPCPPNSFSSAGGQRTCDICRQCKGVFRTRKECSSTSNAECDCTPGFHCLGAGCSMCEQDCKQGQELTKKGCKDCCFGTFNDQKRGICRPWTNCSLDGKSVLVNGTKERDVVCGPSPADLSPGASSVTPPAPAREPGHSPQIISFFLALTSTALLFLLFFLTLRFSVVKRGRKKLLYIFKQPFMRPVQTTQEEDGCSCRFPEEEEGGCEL
The target of test [5] is recombinant human 4-1BB (Sino Biological Inc., catalog number 10041-H08H) (human, UniProt Q07011 24-186). Kind of test: ELISA; Fig. 8B.
Chain of recombinant human 4-1BB (Sino Biological Inc., catalog number 10041-H08H) (Q07011 24-186): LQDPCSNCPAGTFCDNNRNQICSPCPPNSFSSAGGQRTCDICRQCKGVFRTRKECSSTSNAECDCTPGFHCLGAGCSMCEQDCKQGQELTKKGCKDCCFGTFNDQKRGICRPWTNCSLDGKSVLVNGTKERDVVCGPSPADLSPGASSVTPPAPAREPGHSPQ

T1 sequence (Q9NZQ7 19-238): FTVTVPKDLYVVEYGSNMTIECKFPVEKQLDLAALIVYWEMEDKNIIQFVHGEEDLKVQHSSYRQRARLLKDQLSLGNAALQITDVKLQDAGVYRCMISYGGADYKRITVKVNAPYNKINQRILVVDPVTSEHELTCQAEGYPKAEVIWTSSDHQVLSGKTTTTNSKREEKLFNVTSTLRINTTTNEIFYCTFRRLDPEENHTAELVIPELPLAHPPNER

B1: anti-PD-L1/anti-4-1BB heterodimeric antibody BH3120h (bispecific antibody)
heavy 1: not shown
light 1: DIQMTQSPSSLSASVGDRVTITCKASQDVHTAVAWIQQKPGKSPKLLIYSASNRYTGVPSRFSGSGSGTDFTFTISSLQPEDIATYYCQQHYITPLTFGQGTKLEIKRTVAAPSVFIFPPSDEQLKSGTASVVCLLNNFYPREAKVQWKVDNALQSGNSQESVTEQDSKDSTYSLSSTLTLSKADYEKHKVYACEVTHQGLSSPVTKSFNRGEC
heavy 2: QVQLVQSGAEVKKPGSSVKVSCKASGYTFTSYWINWVRQAPGQGLEWMGNIYPSDSYTNYNQKFKDRVTITADKSTSTAYMELSSLRSEDTAVYYCARLYYGSSPFDYWGQGTTVTVSSASTKGPSVFPLAPSSKSTSGGTAALGCLVKDYFPEPVTVSWNSGALTSGVHTFPAVLQSSGLYSLSSVVTVPSSSLGTQTYICNVNHKPSNTKVDKKVEPKSCDKTHTCPPCPAPELLGGPSVFLFPPKPKDTLMISRTPEVTCVVVDVSHEDPEVKFNWYVDGVEVHNAKTKPREEQYASTYRVVSVLTVLHQDWLNGKEYKCKVSNKALPAPIEKTISKAKGQPREPQVYTEPPSRDELTKNQVSLTCLVKGFYPSDIAVEWESNGQPENNYKTTPPVLDSDGSFFLLSVLTVDKSRWQQGNVFSCSVMHEALHNHYTQKSLSLSPGK
light 2: not shown
Usually EC50 stands for the concentration giving half of the maximal effect. Take B1: the concentration giving a half-maximal response (EC50) in test [1] is 4.86 nM; in test [2], 0.345 nM; in test [3], 1.72 nM; in test [4], 0.396 nM; in test [5], 4.02 nM.

B2: Anti-PD-L1 mAb (antibody, V domains shown)
VH: EVQLVQSGAEVKKPGSSVKVSCKASGFNIEDTYIHWVRQAPGQGLEWMGRIDPANANTKYDPKFQGRVTITADTSTNTAYMELSSLRSEDTAVYYCGRGLGAWFAYWGQGTLVTVSS
VL: DIQMTQSPSSLSASVGDRVTITCKASQDVHTAVAWIQQKPGKSPKLLIYSASNRYTGVPSRFSGSGSGTDFTFTISSLQPEDIATYYCQQHYITPLTFGQGTKLEIK
In the case of B2, the EC50 worked out at 0.884 nM in test [1], 0.102 nM in test [2] and 0.656 nM in test [3].

B3: Anti-4-1BB mAb (antibody, V domains shown)
VH: QVQLVQSGAEVKKPGSSVKVSCKASGYTFTSYWINWVRQAPGQGLEWMGNIYPSDSYTNYNQKFKDRVTITADKSTSTAYMELSSLRSEDTAVYYCARLYYGSSPFDYWGQGTTVTVSS
VL: DIQMTQSPSSLSASVGDRVTITCRASQDISNYLNWYQQKPGKVPKLLIYHTSRLHSGVPSRFSGSGSGTDFTLTISSLQPEDVATYYCQQGHTLPRTFGGGTKVEIK
For the molecule B3, the figures for the EC50 in test [4] and in test [5] were 1.28 nM and 0.045 nM, respectively.
